Source: patent publication US20120077957A1, “Lactam-Bridged Melanocortin Receptor-Specific Peptides” (PALATIN TECHNOLOGIES, INC., priority 2009, published 2012)
Bridge positions count the residues as written; N and C are the ends. Square brackets hold non-standard residues; d marks the D form. Orn = NCCC[C@H](N)C(=O)O; Dab = NCC[C@H](N)C(=O)O

Biological target: human melanocortin-4 receptor (recombinant hMC4-R) (human), P32245
Assay: competition with labelled NDP-α-MSH ([I125] or Eu), hMC4-R HEK-293 membranes
Conditions: remark: other sources report otherwise

Chain of human melanocortin-4 receptor (recombinant hMC4-R) (human), P32245 (P32245 whole entry): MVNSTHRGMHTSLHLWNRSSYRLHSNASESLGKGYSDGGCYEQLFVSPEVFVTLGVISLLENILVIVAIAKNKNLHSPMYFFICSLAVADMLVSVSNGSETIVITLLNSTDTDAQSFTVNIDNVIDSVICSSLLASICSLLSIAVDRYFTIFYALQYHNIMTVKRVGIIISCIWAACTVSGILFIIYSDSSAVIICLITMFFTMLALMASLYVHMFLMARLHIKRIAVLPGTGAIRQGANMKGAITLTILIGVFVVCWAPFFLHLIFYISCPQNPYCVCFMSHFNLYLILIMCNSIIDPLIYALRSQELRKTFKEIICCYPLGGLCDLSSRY

Ac-RD[Orn][dF]RWK-OH (lactam 2-7) [Asp...Lys analog of peptide No. 7: Ac-Arg-cyclo(Asp-Orn-D-Phe-Arg-Trp-Lys)-OH] gave a Ki of 18 nM.

B1: Asp...Lys analog of peptide No. 18: Ac-Arg-cyclo(Asp-Dab(Acetyl)-D-Phe-Arg-Trp-Lys)-NH2 (peptide)
peptide: Ac-RD[Dab](Ac)[dF]RWK-NH2
modifications: lactam 2-7
SMILES: CC(=O)NCC[C@@H]1NC(=O)[C@@H](NC(=O)[C@H](CCCNC(=N)N)NC(C)=O)CC(=O)NCCCC[C@@H](C(N)=O)NC(=O)[C@H](Cc2c[nH]c3ccccc23)NC(=O)[C@H](CCCNC(=N)N)NC(=O)[C@@H](Cc2ccccc2)NC1=O
With B1 the Ki was 33 nM.

Work on Ac-RD[Orn](Ac)[dF]RWK-NH2 (lactam 2-7) [Asp...Lys analog of peptide No. 33: Ac-Arg-cyclo(Asp-Orn(Acetyl)-D-Phe-Arg-Trp-Lys)-NH2] yielded a Ki of 573 nM.

With Ac-RD[Dab][dF]RWK-OH (lactam 2-7) [Asp...Lys analog of peptides No. 5 and No. 42: Ac-Arg-cyclo(Asp-Dab-D-Phe-Arg-Trp-Lys)-OH] the Ki was 56 nM.

With Ac-RD[Orn][dF]RWK-NH2 (lactam 2-7) [Asp...Lys analog of peptide No. 8: Ac-Arg-cyclo(Asp-Orn-D-Phe-Arg-Trp-Lys)-NH2] the Ki was 7 nM.

Ac-RD[Dab][dF]RWK-NH2 (lactam 2-7) [Asp...Lys analog of peptides No. 6 and No. 43: Ac-Arg-cyclo(Asp-Dab-D-Phe-Arg-Trp-Lys)-NH2] was tested, and the Ki was 4 nM.
